One assay deals with T1, His-HPV18E7融合蛋白 (human papillomavirus type 18 (HPV18), UniProt P06788 1-105).
T1 construct: Recombinant His fusion protein coated on ELISA plates; also called HPV18E7重组蛋白; His-HPV18E7重组蛋白; not shown: His tag
T1 chain: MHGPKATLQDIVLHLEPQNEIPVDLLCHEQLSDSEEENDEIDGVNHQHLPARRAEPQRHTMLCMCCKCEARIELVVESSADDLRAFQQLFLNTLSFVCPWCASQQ
Put plainly: ELISA by the method of Beatty et al.: His-HPV18E7 coated at 8, 2, 0.5 and 0.125 μg/ml, MAB-F2 in two-fold dilutions from 8 μg/ml, mean of six K values. Background: In an ELISA, binding on a coated surface is turned into a signal by an enzyme label.

In the next assay the target is T2, His-HPV16E7融合蛋白 (human papillomavirus type 16 (HPV16), UniProt P03129 2-98).
T2 construct: Recombinant His fusion protein coated on ELISA plates; also called HPV16E7重组蛋白; His-HPV16E7重组蛋白; not shown: His tag
T2 sequence: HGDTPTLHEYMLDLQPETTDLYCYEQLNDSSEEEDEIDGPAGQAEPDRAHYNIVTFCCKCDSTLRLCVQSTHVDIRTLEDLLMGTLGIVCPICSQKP
Put plainly: indirect ELISA, coated His-HPV16E7.

A further assay addresses T3, CaSki细胞表达的HPV16E7蛋白 (human papillomavirus type 16 (HPV16), UniProt P03129 2-98).
T3 construct: Endogenous, intracellular E7 of CaSki cells, tested in fixed, permeabilised cells (ICC); also called 表达HPV16E7的CaSki细胞; HPV16E7阳性细胞CaSki
T3 sequence: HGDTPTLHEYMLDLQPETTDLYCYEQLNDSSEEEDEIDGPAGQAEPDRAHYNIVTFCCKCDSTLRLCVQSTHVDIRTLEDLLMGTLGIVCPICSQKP
Description: immunocytochemistry on fixed, permeabilised CaSki cells.

B1: HPV18E7单克隆抗体MAB-F2 (antibody, V domains shown)
VH: LVQSGGGSVKPGGSLKLSCAASGFTFNRYDMSWFRQSPEKRLEWVAEIRNDGSKTHYSDTVTGRFTISRDNAKNTLYLEMSSLRSEDTAMYYCTRDSYGTVFAYWGQGTLVTVSA
VL: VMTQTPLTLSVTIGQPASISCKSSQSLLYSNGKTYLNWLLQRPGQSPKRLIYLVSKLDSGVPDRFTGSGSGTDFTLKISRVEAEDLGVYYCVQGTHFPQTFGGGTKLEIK
notes: also called mAb MAB-F2; anti-HPV18E7单抗MAB-F2
Usually Kd stands for a measure of binding affinity in units of concentration. Read a high Kd as lower affinity. Turning to B1, the Kd with His-HPV18E7融合蛋白 is 2.67 nM. For the same molecule, the binding result in the assay with His-HPV16E7融合蛋白 is on record as “no binding (tested: MAB-F2 1μg/ml; antigen coated at 2μg/ml)”; in the assay with CaSki细胞表达的HPV16E7蛋白, “no binding (tested: MAB-F2 5μg/ml)”.

(Values after CN105524166A (ATTOBIO (SUZHOU) CO LTD, dated 2016).)
